In patent US12062453B2, “Self-titrating bacterial protease-activated prodrug” (GEORGIA TECH RESEARCH CORPORATION, priority 2018, dated 2024):
Like-named read-outs stand apart in the source and are kept apart here.

Assays:
OmpT [1] = molecular target: T1, OmpT (Escherichia coli, UniProt P09169); format: cell-based, E. coli; set-up: OmpT expressed on the surface of E. coli; endogenous in cells; host or cells: DH5a Escherichia coli
Protocol: To model the rate of enzymatic activation of locked drugs, L, by OmpT, Michaelis-Menten (MM) kinetics were applied, where the rate of substrate activation is determined by the catalytic rate of the reaction, kcat, and the half-maximal substrate concentration, Km (Equation 1.3). Here it was assumed the system constituted a well-mixed solution of freely diffusing substrates (i.e., locked drug) in large excess, which were valid assumptions for this study since AMP prodrug was present at concentrations ˜102 micromolar in an aqueous environment. Because the total amount of drug is conserved, the MM activation rate of unlocked drug, U, was defined as opposite of the degradation rate of locked drug L (Equation 1.4). A term to account for the loss of active AMPS was included according to a proportionality constant, a*, that represents the number AMP required to kill one E. coli. This term was necessary as AMPS lyse E. coli by intercalating with bacterial membranes (Roversi, et al. ACS Chemical Biology, 9:2-3-2007 (2014)) and therefore are removed from the system and unable to target additional bacteria.
To fit this model to the disclosed system, the values for relevant parameters, including enzymatic efficiency (e.g., kcat, Km), bacterial growth (e.g., r, Bmax), and prodrug activity (e.g., a, a*) were measured (FIGS. 2A-2D, Table 2). This allowed for the prediction of bacteria-prodrug response curves (FIGS. 3B-3J) across nine distinct combinations of kcat and r values, which were experimentally controlled by altering the ambient temperature and concentration of broth (conditions labeled A1-3, B1-3, and C1-3). […] To experimentally validate the model predictions, bacteria were incubated with prodrugs under the defined nine conditions, and the number of living bacteria were quantified longitudinally over the course of a 24 hour treatment window. […]

DH5a Escherichia coli = format: cell-based
Protocol: Bacterial culture and cytotoxicity measurement: DH5a Escherichia coli were a gift from Todd Sulchek's BioMEMS lab at Georgia Tech. E. coli were cultured in LB broth (Lennox) at 37 C and plated on LB agar (Lennox) plates. LB broth was purchased from Millipore Sigma (Burlington, Mass.) and LB agar was purchased from Invitrogen (Carlsbad, Calif.). AMP and locked AMP were custom ordered from Genscript (Piscataway, NJ). […] Concentration was estimated by measuring the OD600 of the bacterial suspension, and assuming an OD600 of 1.000 corresponds to a concentration of 8×10^8 CFU/mL. Bacterial cell viability was measured by making eight 10-fold serial dilutions, and plating three 10 uL spots on an LB agar plate. Plates were incubated overnight at 37° C., and CFUs were counted.

OmpT [2] = molecular target: T1, OmpT; format: biochemical, E. coli; set-up: purchased Lifespan Biosciences (Seattle, WA)
Protocol: Protease Cleavage Assays: All protease cleavage assays were performed with a BioTek Cytation 5 Imaging Plate Reader, taking fluorescent measurements at 485/528 nm (excitation/emission) for read-outs measuring peptide substrates terminated with FITC (Fluorescein isothiocyanate). Kinetic measurements were taken every minute over the course of 60-120 minutes at 37 C. Tobacco Etch Virus protease (TEVp), along with its substrate and buffer was obtained from Anaspec, Inc. (Fremont, Calif.). Activity RFU measurements were normalized to time 0 measurement, and as such represent fold change in signal. Outer Membrane Protease T (i.e., OmpT, Protease 7) was purchased from Lifespan Biosciences (Seattle, WA). OmpT fluorescent peptide substrate was custom ordered from Genscript (Piscataway, NJ).

[3] = molecular target: T2, OmpT expressed on the surface of E. coli (Escherichia coli, UniProt P09169); format: cell-based
T2 construct: OmpT expressed on the surface of E. coli; endogenous in cells; host or cells: DH5a Escherichia coli
T2 sequence (P09169 21-317): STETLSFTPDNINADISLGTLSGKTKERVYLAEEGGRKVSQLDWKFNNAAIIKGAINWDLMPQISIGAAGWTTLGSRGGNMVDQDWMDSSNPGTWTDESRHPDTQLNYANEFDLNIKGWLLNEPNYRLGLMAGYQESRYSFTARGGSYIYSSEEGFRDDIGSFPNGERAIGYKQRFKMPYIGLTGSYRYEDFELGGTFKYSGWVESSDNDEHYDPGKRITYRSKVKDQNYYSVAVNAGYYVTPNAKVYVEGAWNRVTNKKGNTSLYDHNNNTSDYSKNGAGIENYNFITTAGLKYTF

T1 sequence (P09169 21-317): as above

AMP: cationic (polyarginine) antimicrobial peptide, the unlocked drug (KLAKLAKKLAKLAK; Bacterial protease substrate)
a*, AMP decay (number of AMP required to kill one E. coli) (OmpT [1]): 2.4e11 AMP/bacteria | a, cytotoxic efficiency, EC50 (OmpT [1]): 1e11 h^−1, AMP/bacteria/hr | Cytotoxicity of unlocked drug (colonies) (DH5a Escherichia coli): significant reduction in colonies

Aprotinin
OmpT activity in samples containing inhibitor (OmpT [2]; recombinant OmpT plus inhibitor): no activity was observed | OmpT activity in samples containing inhibitor ([3]; live E. coli culture plus inhibitor): no activity was observed | Bacteria load after prodrug treatment (DH5a Escherichia coli; locked AMP plus Aprotinin inhibitor): did not significantly reduce bacteria load

DABCYL-RRSRRV-Lys(5-FAM) [OmpT Probe]
OmpT cleavage activity against fluorophore-quencher linker probe (OmpT [2]; recombinant OmpT): OmpT activity was detected | OmpT cleavage activity against fluorophore-quencher linker probe ([3]; live E. coli culture): OmpT activity was detected

EEEEEEEEEEEEERRSRRVRRRRRRRRR [Locked AMP (linker 1)]
Km, Michaelis constant (OmpT [1]): 9e+12 µL⁻¹ | kcat (OmpT [1]; condition A1: 37 °C, LB broth 0%): 25 h^−1 × 10^10 | kcat (OmpT [1]; condition A2: 30 °C, LB broth 2%): 13.6 h^−1 × 10^10 | kcat (OmpT [1]; condition A3: 37 °C, LB broth 2%): 22 h^−1 × 10^10 | kcat (OmpT [1]; condition B1: 37 °C, LB broth 4%): 15 h^−1 × 10^10 | kcat (OmpT [1]; condition B2: 37 °C, LB broth 6%): 13.6 h^−1 × 10^10 | kcat (OmpT [1]; condition B3: 37 °C, LB broth 20%): 1 h^−1 × 10^10 | kcat (OmpT [1]; condition C1: 30 °C, LB broth 20%): 5.2 h^−1 × 10^10 | kcat (OmpT [1]; condition C2: 30 °C, LB broth 66%): 4 h^−1 × 10^10 | kcat (OmpT [1]; condition C3: 37 °C, LB broth 66%): 6 h^−1 × 10^10 | kcat, enzyme catalytic turnover (OmpT [1]; range over conditions): 0.7-25e10 h^−1 | Bacteria load after prodrug treatment (DH5a Escherichia coli; prodrug alone): Elimination of bacteria

EEEEEEEEENLYFQGRRRRRRRRR [Locked AMP (linker 3)]
Bacteria load after prodrug treatment (DH5a Escherichia coli; prodrug alone): did not significantly reduce bacteria load | Bacteria load after prodrug treatment (DH5a Escherichia coli; prodrug plus TEV protease): Elimination of bacteria
